B1: unnamed (protein)
chain: MANPYERGPDPTESSIEAVRGPFAVAQTTVSRLQADGFGGGTIYYPTDTSQGTFGAVAISPGFTAGQESIAWLGPRIASQGFVVITIDTITRLDQPDSRGRQLQAALDHLRTNSVVRNRIDPNRMAVMGHSMGGGGALSAAANNTSLEAAIPLQGWHTRKNWSSVRTPTLVVGAQLDTIAPVSSHSEAFYNSLPSDLDKAYMELRGASHSVSNTPDTTTAKYSIAWLKRFVDDDLRYEQFLCPAPDDFAISEYRSTCPF
B2: unnamed (protein)
chain: MANPYERGPDPTESSIEAVRGPFAVAQTTVSRLQADGFGGGTIYYPTDTSQGTFGAVAISPGFTAGQESIAWLGPRIASQGFVVITIDTITRLDQPDSRGRQLQAALDHLRTNSVVRNRIDPNRMAVMGHSMGGGGALSAAANNTSLEAAIPLQGWHTRKNWSSVRTPTLVVGAQLDTFAPVSSHSEAFYNSLPSDLDKAYMELRGASHLVSNTPDTTTAKYSIAWLKRFVDDDLRYEQFLCPAPDDFAISEYRSTCPF
B3: unnamed (protein)
chain: MANPYERGPDPTESSIEAVRGPFAVAQTTVSRLQADGFGGGTIYYPTDTSQGTFGAVAISPGFTAGQESIAWLGPRIASQGFVVITIDTITRLDQPDSRGRQLQAALDHLRTNSVVRNRIDPNRMAVMGHSMGGGGALSAAANNTSLEAAIPLQGWHTRKNWSSVRTPTLVVGAQLDTIAPVSSHSEAFYNSLPSDLDKAYMELRGASHKVSNTPDTTTAKYSIAWLKRFVDDDLRYEQFLCPAPDDFAISEYRSTCPF
B4: unnamed (protein)
chain: MANPYERGPDPTESSIEAVRGPFAVAQTTVSRLQADGFGGGTIYYPTDTSQGTFGAVAISPGFTAGQESIAWLGPRIASQGFVVITIDTITRLDQPDSRGRQLQAALDHLRTNSVVRNRIDPNRMAVMGHSMGGGGALSAAANNTSLEAAIPLQGWHTRKNWSSVRTPTLVVGAQLDTIAPVSSHSEAFYNSLPSDLDKAYMELRGASHWVSNTPDTTTAKYSIAWLKRFVDDDLRYEQFLCPAPDDFAISEYRSTCPF
B5: unnamed (protein)
chain: MANPYERGPDPTESSIEAVRGPFAVAQTTVSRLQADGFGGGTIYYPTDTSQGTFGAVAISPGFTAGQESIAWLGPRIASQGFVVITIDTITRLDQPDSRGRQLQAALDHLRTNSVVRNRIDPNRMAVMGHSMGGGGALSAAANNTSLEAAIPLQGWHTRKNWSSVRTPTLVVGAQLDTIAPVSSHSEAFYNSLPSDLDKAYMELRGASHIVSNTPDTTTAKYSIAWLKRFVDDDLRYEQFLCPAPDDFAISEYRSTCPF
B6: unnamed (protein)
chain: MANPYERGPDPTESSIEAVRGPFAVAQTTVSRLQADGFGGGTIYYPTDTSQGTFGAVAISPGFTAGQESIAWLGPRIASQGFVVITIDTITRLDQPDSRGRQLQAALDHLRTNSVVRNRIDPNRMAVMGHSMGGGGALSAAANNTSLEAAIPLQGWHTRKNWSSVRTPTLVVGAQLDTIAPVSSHSEAFYNSLPSDLDKAYMELRGASHNVSNTPDTTTAKYSIAWLKRFVDDDLRYEQFLCPAPDDFAISEYRSTCPF
B7: unnamed (protein)
chain: MANPYERGPDPTESSIEAVRGPFAVAQTTVSRLQADGFGGGTIYYPTDTSQGTFGAVAISPGFTAGQESIAWLGPRIASQGFVVITIDTITRLDQPDSRGRQLQAALDHLRTNSVVRNRIDPNRMAVMGHSMGGGGALSAAANNTSLEAAIPLQGWHTRKNWSSVRTPTLVVGAQLDTIAPVSSHSEAFYNSLPSDLDKAYMELRGASHYVSNTPDTTTAKYSIAWLKRFVDDDLRYEQFLCPAPDDFAISEYRSTCPF
B8: unnamed (protein)
chain: MANPYERGPDPTESSIEAVRGPFAVAQTTVSRLQADGFGGGTIYYPTDTSQGTFGAVAISPGFTAGQESIAWLGPRIASQGFVVITIDTITRLDQPDSRGRQLQAALDHLRTNSVVRNRIDPNRMAVMGHSMGGGGALSAAANNTSLEAAIPLQGWHTRKNWSSVRTPTLVVGAQLDTIAPVSSHSEAFYNSLPSDLDKAYMELRGASHLVSNTPDTTTAKYSIAWLKRFVDDDLRYEQFLCPAPDDFAISEYRSTCPF
B9: unnamed (protein)
chain: MANPYERGPDPTESSIEAVRGPFAVAQTTVSRLQADGFGGGTIYYPTDTSQGTFGAVAISPGFTAGQESIAWLGPRIASQGFVVITIDTITRFDYPDSRGRQLQAALDHLRTNSVVRNRIDPNRMAVMGHSMGGGGALSAAANNTSLEAAIPLQGWHTRKNWSSVRTPTLVVGAQLDTIAPVSSHSEAFYNSLPSDLDKAYMELRGASHLVSNTPDTTTAKYSIAWLKRFVDDDLRYEQFLCPAPDDFAISEYRSTCPF
B10: unnamed (protein)
chain: MANPYERGPDPTESSIEAVRGPFAVAQTTVSRLQADGFGGGTIYYPTDTSQGTFGAVAISPGFTAGQESIAWLGPRIASQGFVVITIDTITRLDQPDSRGRQLQAALDHLRTNSVVRNRIDPNRMAVMGHSMGGGGALSAAANNTSLEAAIPLQGWHTRKNWSSVRTPTLVVGAQLDTWAPVSSHSEAFYNSLPSDLDKAYMELRGASHLVSNTPDTTTAKYSIAWLKRFVDDDLRYEQFLCPAPDDFAISEYRSTCPF
B11: unnamed (protein)
chain: MANPYERGPDPTESSIEAVRGPFAVAQTTVSRLQADGFGGGTIYYPTDTSQGTFGAVAISPGFTAGQESIAWLGPRIASQGFVVITIDTITRLDQPDSRGRQLQAALDHLRTNSVVRNRIDPNRMAVMGHSMGGGGALSAAANNTSLEAAIPLQGWHTRKNWSSVRTPTLVVGAQLDTIAPVSSHSEAFYNSLPSDLDKAYMELCGASHLVSNTPDTTTAKYSIAWLKRFVDDDLRYEQFLCPAPDDFAICEYRSTCPF
B12: unnamed (protein)
chain: MSNPYQRGPNPTRSALTADGPFSVATYTVSRLSVSGFGGGVIYYPTGTSLTFGGIAMSPGYTADASSLAWLGRRLASHGFVVLVINTNSRFDGPDSRASQLSAALNYLRTSSPSAVRARLDANRLAVAGHSMGGGGTLRIAEQNPSLKAAVPLTPWHTDKTFNTSVPVLIVGAEADTVAPVSQHAIPFYQNLPSTTPKVYVELCNASHIAPNSNNAAISVYTISWMKLWVDNDTRYRQFLCNVNDPALCDFRTNNRHCQL

These proteins were tested on gfPET (assay: Proxy for plastic degradation [Relative activity]). Details: pH 8.

| Protein | Proxy for plastic degradation [%] |
| --- | --- |
| B1 | 94 |
| B2 | 9 |
| B3 | 48 |
| B4 | 85 |
| B5 | 54 |
| B6 | 97 |
| B7 | 68 |
| B10 | 23 |

What follows are proteins tested on pcPET (post-consumer) (assay: Proxy for plastic degradation [Released monomer concentration (HPLC/LC-MS) (MHET+TPA+BHET)]). Details: pH 8; part of the chain shown.

| Protein | Proxy for plastic degradation [mM] |
| --- | --- |
| B8 | 70 |
| B9 | 198 |
| B11 | 62 |
| B12 | 90 |

These proteins were tested on gfPET (assay: Proxy for plastic degradation [Relative activity]). Details: pH 8; part of the chain shown.

| Protein | Proxy for plastic degradation [%] |
| --- | --- |
| B9 | 100 |
| B11 | 100 |

Source: the PETadex activity labels (doi:10.1021/acscatal.2c02275)
